How the values were obtained:
[1] = target: HLA-A2.1 (HLA-A*0201) on the surface of T2 cells (human); experiment: peptide-binding assay, stabilisation of HLA-A2 on the surface of T2 cells, fluorescence intensity relative to PR1
[2] = target: HLA-A2.1 heavy chain with I125-labeled beta2-microglobulin (heterotrimer dissociation assay) (human); experiment: dissociation of I125-labeled beta2-microglobulin from the heavy chain/peptide/beta2-microglobulin complex, HPLC gel filtration

## CCNE1144-152 (cyclin E1 derived nonameric peptide) (from UniProt P24864 144-152)
[1]
  FI CCNE1144-152/FI PR1: 1.01

## HTLV-1 Tax peptide (aa 11-19) (from UniProt P03409 11-19) (peptide; other documents disagree on this pair)
[2]
  T1/2: 133 h
